# Measured values as given in patent US20160136234A1.
# Tests used:
# Test in all cases: cell-based or functional assay
# EphA7 (h) (human) = EphA7 (h) (human) (UniProt Q15375)
# MLCK (h) (human) = biological target: MLCK (h) (human)
# PRAK (h) (human) = PRAK (h) (human) (UniProt Q8IW41)
# TSSK2 (h) (human) = biological target: T1, TSSK2 (h) (human) (UniProt Q96PF2)
# T1 sequence (looked up): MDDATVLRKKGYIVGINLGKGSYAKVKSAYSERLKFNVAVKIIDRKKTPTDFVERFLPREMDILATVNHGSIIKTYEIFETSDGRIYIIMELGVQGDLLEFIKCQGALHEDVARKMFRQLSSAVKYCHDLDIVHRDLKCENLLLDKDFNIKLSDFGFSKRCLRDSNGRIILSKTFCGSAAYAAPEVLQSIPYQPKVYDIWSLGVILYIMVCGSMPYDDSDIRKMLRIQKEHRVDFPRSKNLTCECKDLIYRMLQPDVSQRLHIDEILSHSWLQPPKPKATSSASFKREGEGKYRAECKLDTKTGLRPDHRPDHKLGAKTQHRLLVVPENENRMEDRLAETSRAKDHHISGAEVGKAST
# HIPK2 (h) (human) = HIPK2 (h) (human) (UniProt Q9H2X6)
# SGK (h) (human) = SGK (h) (human) (UniProt O00141)
# TAO3 (h) (human) = biological target: T2, TAO3 (h) (human) (UniProt Q9H2K8)
# T2 sequence (looked up): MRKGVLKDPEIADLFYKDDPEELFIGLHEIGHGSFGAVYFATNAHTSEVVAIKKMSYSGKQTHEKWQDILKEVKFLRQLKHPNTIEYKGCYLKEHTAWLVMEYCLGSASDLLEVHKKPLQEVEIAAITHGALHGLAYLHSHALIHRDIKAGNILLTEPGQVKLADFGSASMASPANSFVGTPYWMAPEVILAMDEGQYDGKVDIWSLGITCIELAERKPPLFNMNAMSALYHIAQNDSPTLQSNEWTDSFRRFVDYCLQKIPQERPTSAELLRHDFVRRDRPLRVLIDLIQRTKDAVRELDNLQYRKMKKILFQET
# cKit(D816H) (h) (human) = cKit(D816H) (h) (human) (UniProt P10721)
# cKit(D816V) (h) (human) = cKit(D816V) (h) (human) (UniProt P10721)
# CDK1/cyclinB (h) (human) = CDK1/cyclinB (h) (human) (UniProt P06493)
# NEK11 (h) (human) = biological target: T3, NEK11 (h) (human) (UniProt Q8NG66)
# T3 sequence (looked up): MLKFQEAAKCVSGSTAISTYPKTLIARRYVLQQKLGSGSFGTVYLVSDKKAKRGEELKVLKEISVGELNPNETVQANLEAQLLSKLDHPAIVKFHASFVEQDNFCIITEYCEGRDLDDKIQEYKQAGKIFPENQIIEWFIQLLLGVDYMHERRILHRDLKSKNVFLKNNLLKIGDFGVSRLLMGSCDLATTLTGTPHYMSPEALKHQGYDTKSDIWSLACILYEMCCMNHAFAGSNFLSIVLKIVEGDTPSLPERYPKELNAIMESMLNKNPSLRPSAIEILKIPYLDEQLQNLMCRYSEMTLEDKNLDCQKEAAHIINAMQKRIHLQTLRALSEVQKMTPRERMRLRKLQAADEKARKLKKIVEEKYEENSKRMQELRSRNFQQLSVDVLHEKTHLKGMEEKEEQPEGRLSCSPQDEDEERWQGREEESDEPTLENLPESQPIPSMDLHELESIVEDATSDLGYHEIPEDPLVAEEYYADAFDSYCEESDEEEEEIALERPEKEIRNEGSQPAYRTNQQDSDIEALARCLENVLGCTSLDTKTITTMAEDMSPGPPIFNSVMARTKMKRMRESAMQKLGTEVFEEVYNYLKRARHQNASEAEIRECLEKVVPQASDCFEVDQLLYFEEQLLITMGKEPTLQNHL
# eEF-2K (h) (human) = biological target: T4, eEF-2K (h) (human) (UniProt O00418)
# T4 sequence (looked up): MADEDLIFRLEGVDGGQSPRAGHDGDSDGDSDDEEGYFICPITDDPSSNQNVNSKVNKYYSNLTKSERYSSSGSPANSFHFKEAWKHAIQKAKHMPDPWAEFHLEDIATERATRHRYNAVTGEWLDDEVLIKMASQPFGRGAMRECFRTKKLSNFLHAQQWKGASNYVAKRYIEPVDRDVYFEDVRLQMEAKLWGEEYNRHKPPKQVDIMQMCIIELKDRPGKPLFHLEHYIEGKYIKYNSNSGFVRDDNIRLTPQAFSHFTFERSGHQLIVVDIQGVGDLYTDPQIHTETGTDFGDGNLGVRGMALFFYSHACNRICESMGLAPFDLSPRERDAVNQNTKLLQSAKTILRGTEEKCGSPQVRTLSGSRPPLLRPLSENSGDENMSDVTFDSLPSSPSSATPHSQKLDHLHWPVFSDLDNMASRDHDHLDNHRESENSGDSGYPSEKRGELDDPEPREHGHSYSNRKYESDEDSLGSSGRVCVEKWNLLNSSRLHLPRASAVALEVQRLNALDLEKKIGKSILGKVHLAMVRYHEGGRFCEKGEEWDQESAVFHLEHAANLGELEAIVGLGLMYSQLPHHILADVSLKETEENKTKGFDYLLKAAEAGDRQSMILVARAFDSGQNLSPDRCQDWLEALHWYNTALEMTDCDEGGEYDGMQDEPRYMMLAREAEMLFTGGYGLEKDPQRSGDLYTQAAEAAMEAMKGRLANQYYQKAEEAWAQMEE
# Sequence of cKit(D816V) (h) (human) (P10721 544-976 D816V): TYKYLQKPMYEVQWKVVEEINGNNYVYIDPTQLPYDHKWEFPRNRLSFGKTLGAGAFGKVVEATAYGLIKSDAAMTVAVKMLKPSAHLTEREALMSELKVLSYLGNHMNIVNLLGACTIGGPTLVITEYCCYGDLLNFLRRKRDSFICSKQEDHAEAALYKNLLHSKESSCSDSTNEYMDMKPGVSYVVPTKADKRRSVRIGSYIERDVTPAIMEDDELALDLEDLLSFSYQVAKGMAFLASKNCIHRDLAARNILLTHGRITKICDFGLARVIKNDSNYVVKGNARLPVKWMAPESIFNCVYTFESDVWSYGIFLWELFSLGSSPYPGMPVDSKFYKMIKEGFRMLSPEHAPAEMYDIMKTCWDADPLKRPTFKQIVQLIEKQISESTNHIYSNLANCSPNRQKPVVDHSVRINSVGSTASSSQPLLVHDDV
# Sequence of SGK (h) (human) (O00141 60-431 limits assumed): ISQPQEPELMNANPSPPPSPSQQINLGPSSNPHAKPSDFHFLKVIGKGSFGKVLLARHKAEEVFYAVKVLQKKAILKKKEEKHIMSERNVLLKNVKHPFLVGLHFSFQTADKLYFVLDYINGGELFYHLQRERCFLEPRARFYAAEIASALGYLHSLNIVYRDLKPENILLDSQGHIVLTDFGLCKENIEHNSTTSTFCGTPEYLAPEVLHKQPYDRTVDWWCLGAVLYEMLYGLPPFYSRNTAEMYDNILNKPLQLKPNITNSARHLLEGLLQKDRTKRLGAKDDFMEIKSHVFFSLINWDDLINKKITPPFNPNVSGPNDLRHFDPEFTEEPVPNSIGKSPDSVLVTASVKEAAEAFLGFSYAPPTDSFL
# Sequence of PRAK (h) (human) (Q8IW41 whole entry): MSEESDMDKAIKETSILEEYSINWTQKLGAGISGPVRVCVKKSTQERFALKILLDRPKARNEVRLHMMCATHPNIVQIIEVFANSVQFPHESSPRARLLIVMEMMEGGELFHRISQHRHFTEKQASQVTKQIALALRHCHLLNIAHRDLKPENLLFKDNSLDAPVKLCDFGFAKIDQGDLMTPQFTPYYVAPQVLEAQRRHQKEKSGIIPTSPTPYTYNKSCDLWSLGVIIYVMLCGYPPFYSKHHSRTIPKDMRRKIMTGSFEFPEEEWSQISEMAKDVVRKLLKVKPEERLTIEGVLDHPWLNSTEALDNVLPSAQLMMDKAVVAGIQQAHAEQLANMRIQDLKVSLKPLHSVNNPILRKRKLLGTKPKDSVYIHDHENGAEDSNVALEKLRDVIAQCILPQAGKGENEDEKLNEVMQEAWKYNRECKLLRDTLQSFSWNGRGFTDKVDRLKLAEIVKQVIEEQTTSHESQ
# Sequence of cKit(D816H) (h) (human) (P10721 544-976 D816H): as the sequence (P10721 544-976 D816V) above, with V273H counted along it
substance,measurement,setting,value
MMI-0300 (peptide),% activity at 100 µM,EphA7 (h) (human),159%
same,% activity at 100 µM,MLCK (h) (human),2%
same,% activity at 100 µM,PRAK (h) (human),128%
same,% activity at 100 µM,TSSK2 (h) (human),98%
same,% activity at 100 µM,HIPK2 (h) (human),73%
same,% activity at 100 µM,SGK (h) (human),48%
same,% activity at 100 µM,TAO3 (h) (human),77%
same,% activity at 100 µM,cKit(D816H) (h) (human),126%
same,% activity at 100 µM,cKit(D816V) (h) (human),60%
same,% activity at 100 µM,CDK1/cyclinB (h) (human),73%
same,% activity at 100 µM,NEK11 (h) (human),53%
same,% activity at 100 µM,eEF-2K (h) (human),91%
